± gives the half width of the 95% confidence interval.
Assays:
[1] = folding stability dG unfold from trypsin proteolysis; higher = more stable
Outline: (§1)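 Digests were run with trypsin and chymotrypsin at 11 concentrations in threefold dilutions, plus a no-protease condition, on designed mini-proteins in a PA-tagged cDNA display construct. The mini-proteins were under 80 residues, had no cysteine, and were kept only when AlphaFold2 dimer inter-PAE was above 15. After sequencing, Bayesian fitting of the counts gave K50, from which unfolding free energy was derived against a sequence-predicted unfolded-state K50 and a shared folded-state K50, per protease or combined.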

[2] = folding stability dG unfold from chymotrypsin proteolysis; higher = more stable
Outline: as §1

[3] = folding stability dG unfold (combined trypsin and chymotrypsin); higher = more stable
Outline: as §1

SAMKEGQRLLVVKITIYNKNGEKVEELELVVPEEDKEKALEAAKKLAEELAKKLNLEIKIEVEEVPLPPSAG [r14_146_TrROS_Hall]
folding stability dG unfold [1]: 3.14 ± 0.2 kcal/mol
folding stability dG unfold [2]: 4.02 ± 0.078 kcal/mol
folding stability dG unfold [3]: 3.86 ± 0.13 kcal/mol

SKKYKIKKVTIFVYKNGKVEEKEVDLTVDELKALEDAGFEVVKVEEKDGYITVVIKKDGYLVIIKIEIEPSA [r9_5_TrROS_Hall]
folding stability dG unfold [1]: 2.73 ± 0.18 kcal/mol
folding stability dG unfold [2]: 3.9 ± 0.2 kcal/mol
folding stability dG unfold [3]: 3.52 ± 0.37 kcal/mol

SMETVELRVRVRVFNPETGELVEEIEVTVTLPKGMTLEEALRRAREALREALERLLRPPEPVLDEDGRLVSA [r9_454_TrROS_Hall]
folding stability dG unfold [1]: 3.66 ± 0.12 kcal/mol
folding stability dG unfold [2]: 4.26 ± 0.19 kcal/mol
folding stability dG unfold [3]: 3.99 ± 0.14 kcal/mol

SAGGSAGGSAMFPDNTTVIEKEVPSSDVESAIEEIKKEYGVENYEVTTEPRPGTVKITVTIKPSAGGSAGGS [r12_929_JUSTAS]
folding stability dG unfold [1]: 1.65 ± 0.064 kcal/mol
folding stability dG unfold [2]: 1.34 ± 0.038 kcal/mol
folding stability dG unfold [3]: 1.53 ± 0.093 kcal/mol

SAGGSAGSLSPIGEHPYTLPDGSRITVPIYRDPATGEIVVEVETETEEEDISEKAEEYAEKVREALSAGGSA [r15_529_JUSTAS]
folding stability dG unfold [1]: -0.0147 ± 0.048 kcal/mol
folding stability dG unfold [2]: -0.571 ± 0.45 kcal/mol
folding stability dG unfold [3]: -0.25 ± 0.14 kcal/mol

SAGGSAGGMTVEIDLDLEVPDGGVRLERLVVDPERPLVLAFLTLEDGTKRVIPFESLEELLERLSAGGSAGG [r6_547_TrMRF]
folding stability dG unfold [1]: 1.26 ± 0.064 kcal/mol
folding stability dG unfold [2]: 1.21 ± 0.032 kcal/mol
folding stability dG unfold [3]: 1.23 ± 0.11 kcal/mol

SAGGSAGGSAGGKIVKIEFDKETKEIKITLPNGKKITISKEDLKNMKIEIKVYPKKKKKKSAGGSAGGSAGG [r7_98_TrROS_Hall]
folding stability dG unfold [1]: 0.774 ± 0.093 kcal/mol
folding stability dG unfold [2]: 2.45 ± 0.1 kcal/mol
folding stability dG unfold [3]: 1.8 ± 0.35 kcal/mol

SAGGMKYLIKIEVDGKEIEIEAESLEEAEELAKKLEEEGIEIEVKKIEIYELPEEEEEEEEEKKKKESAGGS [r8_336_TrROS_Hall]
folding stability dG unfold [1]: 0.249 ± 0.11 kcal/mol
folding stability dG unfold [2]: 2.24 ± 0.08 kcal/mol
folding stability dG unfold [3]: 1.85 ± 0.21 kcal/mol

SALEANIKKAEELAKPEEKVPEFPVKVGDLYIKSVRFFPSTKKVVLFLPNGEKIEADPNVTLEEILKAISAG [r14_59_TrMRF]
folding stability dG unfold [1]: 0.759 ± 0.075 kcal/mol
folding stability dG unfold [2]: 0.254 ± 0.13 kcal/mol
folding stability dG unfold [3]: 0.51 ± 0.15 kcal/mol

SAGGSAGGMRVRLTFPDGSVVELDLSSLPFSPEEVERAGEEELRALLEEAYPDREIELERVPEPSAGGSAGG [r6_165_JUSTAS]
folding stability dG unfold [1]: 2.13 ± 0.056 kcal/mol
folding stability dG unfold [2]: 2.93 ± 0.032 kcal/mol
folding stability dG unfold [3]: 2.63 ± 0.051 kcal/mol

SEWVSFMFPFKFEPDDGKIRIKIKMKAPDGEPLGEHEHPVRRDGDKVEVMQMITFPLPKGAQLDKIEIEPSA [r9_292_TrROS]
folding stability dG unfold [1]: 0.778 ± 0.26 kcal/mol
folding stability dG unfold [2]: 1.11 ± 0.34 kcal/mol
folding stability dG unfold [3]: 0.922 ± 0.24 kcal/mol

SMISLEKETSLPPEEARRAVERFLAELPEVERLLSVEVREDPDSYTVSLTLEGGAVSPEVLEAIERALAASA [r9_195_JUSTAS]
folding stability dG unfold [1]: 2.54 ± 0.053 kcal/mol
folding stability dG unfold [2]: 2.71 ± 0.039 kcal/mol
folding stability dG unfold [3]: 2.63 ± 0.062 kcal/mol

SMEIRIKEVNEDGYLVIEIRVLSEDGKELTPEEVEELAEEIAAELKEKFPDVKVTVERLEDGTVRIVVEPSA [r9_485_TrROS_Hall]
folding stability dG unfold [1]: 3.19 ± 0.15 kcal/mol
folding stability dG unfold [2]: 2.65 ± 0.15 kcal/mol
folding stability dG unfold [3]: 2.89 ± 0.22 kcal/mol

SAGGSAGGSAGGSPVEIKLKELPDGVLVAEATFTLENGETVKIKAVYDKKTKKLHFELVSAGGSAGGSAGGS [r4_13_TrROS_Hall]
folding stability dG unfold [1]: 2.15 ± 0.086 kcal/mol
folding stability dG unfold [2]: 3.5 ± 0.085 kcal/mol
folding stability dG unfold [3]: 3.09 ± 0.098 kcal/mol

SAMTIKIEVINEKGEKIEITIPVKKEDLEKLKEEIEKELKKLAEEKGEKVKVEIVEVDENGYLKIRVYKSAG [r14_622_TrROS_Hall]
folding stability dG unfold [1]: 2.75 ± 0.2 kcal/mol
folding stability dG unfold [2]: 2.54 ± 0.059 kcal/mol
folding stability dG unfold [3]: 2.73 ± 0.21 kcal/mol

SAGGSAGGPSLRLTFPFPPGFSVTIELFPDGTARITIHNSDGSLLLSFSIPLPPVIPPDPSSLLSAGGSAGG [r6_238_TrMRF]
folding stability dG unfold [1]: 3.33 ± 0.17 kcal/mol
folding stability dG unfold [2]: 2.63 ± 0.084 kcal/mol
folding stability dG unfold [3]: 2.84 ± 0.38 kcal/mol

SAGGSAGGSMVLRIKTEDGEEIEIELPEELKELSAEEIAELLGLDEVKVVEVEVVEPEEEEEESAGGSAGGS [r12_411_TrROS_Hall]
folding stability dG unfold [1]: 0.256 ± 0.043 kcal/mol
folding stability dG unfold [2]: 2.01 ± 0.05 kcal/mol
folding stability dG unfold [3]: 1.66 ± 0.19 kcal/mol

SAGGSAGGSGSSLVSETVEEGPGLTTRTLTYRLPGAPGVLLERTVTYDPEGNELATSLTVVPESAGGSAGGS [r12_62_JUSTAS]
folding stability dG unfold [1]: 0.0552 ± 0.052 kcal/mol
folding stability dG unfold [2]: 0.0935 ± 0.076 kcal/mol
folding stability dG unfold [3]: 0.15 ± 0.059 kcal/mol

SAGGSAMKITYKPPSGETTVHPIPPGLTPEERRALAEELAKALQEKTGDPNVTVEFDPATGEITVASAGGSA [r15_33_JUSTAS]
folding stability dG unfold [1]: 1.33 ± 0.034 kcal/mol
folding stability dG unfold [2]: -0.0618 ± 0.15 kcal/mol
folding stability dG unfold [3]: 0.84 ± 0.11 kcal/mol

SAGMPGKVVTVTVPVPPELTRLTVTATAPDGSSSTFTLPPGVATTVTFTSPSSSDLSVTVTFPDGSTTGSAG [r5_664_JUSTAS]
folding stability dG unfold [1]: 0.849 ± 0.017 kcal/mol
folding stability dG unfold [2]: 1.16 ± 0.052 kcal/mol
folding stability dG unfold [3]: 1.07 ± 0.05 kcal/mol

SAGGSPSITVSESSDPATGTRTLTITVPSSAPSATLNIVVSGSGPPVSSKTVTVPPGTTVTITYTTTSAGGS [r16_412_JUSTAS]
folding stability dG unfold [1]: 2.2 ± 0.06 kcal/mol
folding stability dG unfold [2]: 2.84 ± 0.049 kcal/mol
folding stability dG unfold [3]: 2.61 ± 0.056 kcal/mol

Reference: the supplement of paper PMC12764529
